According to patent publication US20100209956A1:

What was measured:
Experiment in all cases: cell-based or functional assay
[1] = target: pro-HGF (single-chain hepatocyte growth factor) (UniProt P14210)
[2] = target: Met receptor on A549 lung carcinoma cells (UniProt P08581)
[3] = target: soluble form of hepsin encompassing the entire extracellular domain (Arg45-Leu417) and a C-terminal His8 tag (human) (UniProt P05981)
Sequence of soluble form of hepsin encompassing the entire extracellular domain (Arg45-Leu417) and a C-terminal His8 tag (human) (P05981 45-162 limits assumed, chain 1 of 2): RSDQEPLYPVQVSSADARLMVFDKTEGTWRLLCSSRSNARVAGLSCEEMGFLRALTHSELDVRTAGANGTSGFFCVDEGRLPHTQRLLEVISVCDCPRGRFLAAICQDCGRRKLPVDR
Sequence of soluble form of hepsin encompassing the entire extracellular domain (Arg45-Leu417) and a C-terminal His8 tag (human) (P05981 other isoform, or with tags, fused parts or gaps limits assumed, chain 2 of 2): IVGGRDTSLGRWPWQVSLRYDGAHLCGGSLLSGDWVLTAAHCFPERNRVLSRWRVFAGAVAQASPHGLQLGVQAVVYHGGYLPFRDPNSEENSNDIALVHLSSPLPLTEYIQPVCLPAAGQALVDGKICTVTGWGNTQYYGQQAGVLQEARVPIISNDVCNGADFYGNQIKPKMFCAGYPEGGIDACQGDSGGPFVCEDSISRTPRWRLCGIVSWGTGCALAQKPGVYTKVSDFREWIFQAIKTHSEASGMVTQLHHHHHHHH

Sequence of Met receptor on A549 lung carcinoma cells (P08581 25-1390 limits assumed): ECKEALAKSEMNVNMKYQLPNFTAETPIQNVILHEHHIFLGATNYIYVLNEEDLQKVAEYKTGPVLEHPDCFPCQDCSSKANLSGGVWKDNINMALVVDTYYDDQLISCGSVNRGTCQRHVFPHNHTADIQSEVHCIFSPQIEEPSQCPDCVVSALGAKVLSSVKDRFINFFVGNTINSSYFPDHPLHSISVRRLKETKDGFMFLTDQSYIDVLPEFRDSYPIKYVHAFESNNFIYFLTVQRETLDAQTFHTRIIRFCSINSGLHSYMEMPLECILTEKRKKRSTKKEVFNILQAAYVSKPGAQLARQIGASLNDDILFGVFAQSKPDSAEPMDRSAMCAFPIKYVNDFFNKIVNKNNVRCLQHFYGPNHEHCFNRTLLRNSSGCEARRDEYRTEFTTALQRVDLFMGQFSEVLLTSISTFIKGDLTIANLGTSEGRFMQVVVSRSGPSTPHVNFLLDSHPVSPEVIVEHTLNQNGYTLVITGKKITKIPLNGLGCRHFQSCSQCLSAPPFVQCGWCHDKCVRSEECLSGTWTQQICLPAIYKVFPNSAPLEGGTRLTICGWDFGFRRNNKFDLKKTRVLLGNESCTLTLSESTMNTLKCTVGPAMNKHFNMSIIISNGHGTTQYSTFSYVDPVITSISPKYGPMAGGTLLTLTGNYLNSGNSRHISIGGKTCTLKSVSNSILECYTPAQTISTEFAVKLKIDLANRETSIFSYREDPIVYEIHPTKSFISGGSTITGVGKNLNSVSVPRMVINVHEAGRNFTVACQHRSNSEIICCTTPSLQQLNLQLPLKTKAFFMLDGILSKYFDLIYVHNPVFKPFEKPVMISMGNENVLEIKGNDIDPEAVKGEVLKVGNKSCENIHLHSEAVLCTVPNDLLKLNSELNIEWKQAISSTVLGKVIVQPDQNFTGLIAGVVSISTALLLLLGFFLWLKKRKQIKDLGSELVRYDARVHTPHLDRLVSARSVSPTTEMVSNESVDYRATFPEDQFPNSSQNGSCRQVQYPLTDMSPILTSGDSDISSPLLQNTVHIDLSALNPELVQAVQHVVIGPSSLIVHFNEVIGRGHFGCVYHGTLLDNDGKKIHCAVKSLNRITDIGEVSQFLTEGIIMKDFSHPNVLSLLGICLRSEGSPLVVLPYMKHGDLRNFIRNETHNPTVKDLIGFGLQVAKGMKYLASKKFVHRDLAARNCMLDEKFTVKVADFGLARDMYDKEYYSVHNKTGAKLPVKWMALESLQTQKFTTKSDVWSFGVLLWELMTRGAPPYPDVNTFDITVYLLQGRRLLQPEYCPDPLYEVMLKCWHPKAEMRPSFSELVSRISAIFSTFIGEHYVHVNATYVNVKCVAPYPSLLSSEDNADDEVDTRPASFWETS
Sequence of pro-HGF (single-chain hepatocyte growth factor) (P14210 32-728 limits assumed): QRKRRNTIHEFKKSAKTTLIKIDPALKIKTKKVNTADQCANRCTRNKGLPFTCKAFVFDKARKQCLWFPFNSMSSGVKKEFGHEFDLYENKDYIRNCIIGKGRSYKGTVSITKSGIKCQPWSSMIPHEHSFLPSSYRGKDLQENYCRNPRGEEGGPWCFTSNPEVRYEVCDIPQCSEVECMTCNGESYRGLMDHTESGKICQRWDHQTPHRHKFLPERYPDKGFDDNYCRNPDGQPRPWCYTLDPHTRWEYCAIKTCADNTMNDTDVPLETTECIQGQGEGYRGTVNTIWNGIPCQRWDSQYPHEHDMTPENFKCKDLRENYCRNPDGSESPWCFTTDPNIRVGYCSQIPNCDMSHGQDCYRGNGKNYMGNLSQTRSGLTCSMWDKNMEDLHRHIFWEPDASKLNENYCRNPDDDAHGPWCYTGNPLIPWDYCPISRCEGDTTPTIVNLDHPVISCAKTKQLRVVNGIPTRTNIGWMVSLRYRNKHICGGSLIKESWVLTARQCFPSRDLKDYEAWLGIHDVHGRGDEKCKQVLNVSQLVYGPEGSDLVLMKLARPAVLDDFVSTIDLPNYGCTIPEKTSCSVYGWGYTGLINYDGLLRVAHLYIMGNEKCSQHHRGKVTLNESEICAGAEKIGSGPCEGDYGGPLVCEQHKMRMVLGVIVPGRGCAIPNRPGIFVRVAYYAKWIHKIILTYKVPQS

percent of unlabelled pro-HGF (0.3 mg/ml) converted into HGF by 40 nM enzyme [1]	Met phosphorylation in a kinase receptor assay (KIRA) with A549 cells: concentration of maximal activity [2]	Substance	further results
> 95%	–	HGFA (hepatocyte growth factor activator) comprising residues Val373-Arg407 (from UniProt Q04756 373-407) (enzyme)	–
–	250 ng/mL	HGFHGFA (HGF produced by activation of pro-HGF with HGFA) (from UniProt P14210 32-728; P14210 32-728) (ligand)	–
–	250 ng/mL	HGFhepsin (HGF produced by activation of pro-HGF with hepsin) (from UniProt P14210 32-728; P14210 32-728) (ligand)	–
–	–	soluble form of HAI-1B (sHAI-1B) comprising the entire extracellular domain (from UniProt O43278 36-465)	IC50, inhibition of hepsin enzymatic activity towards S2366 (amidolytic assay) [3]: 21.1 nM
> 95%	–	soluble form of hepsin encompassing the entire extracellular domain (Arg45-Leu417) and a C-terminal His8 tag (from UniProt P05981 45-162; P05981 163-417) (enzyme)	–
